US20140127225A1 (NEOTOPE BIOSCIENCES, published 2014)
Changes are numbered by the printed parent chain. One block for each binder: values may come before it.

Legend:
[1] = molecular target: T1, human iC3b (purified; Complement Technology #A115) (human, UniProt P01024 23-667); experiment: assay not described
T1 construct: range 23-667; Bought purified protein; chains held together by disulfide bonds; also called purified human iC3b

[2] = molecular target: T1, human iC3b (purified; Complement …); experiment: Biacore; reference C3b
[3] = molecular target: T1, human iC3b (purified; Complement …); experiment: sandwich ELISA; antigen captured by chicken anti-C3; reference C3 or C3b
Source text: For secondary screening, C3, C3b and iC3b were used for testing cross-reactivity. The plate was coated with chicken anti-C3 antibody (LeeBio #CC3-80A) as the capture antibody. For primary screening, only iC3b was used for antigen capture. For antibody characterization, all C3 proteins (C3 (Complement Technology #A113); C3b (Complement Technology #A114); and iC3b (Complement Technology #A115)) were used for antigen capture. Supernatants from cells, control antibody, mouse anti-human iC3b (the A209 antibody (Quidel)), were used as detecting antibodies, respectively. Goat anti-mouse-HRP (Jackson ImmunoResearch #115-035-164) was used as the secondary Antibody. 1-Step ABTS (Thermo #37615) was used as the substrate.
The sandwich ELISA was performed for the two mice in Example 3. First, cell supernatants were only tested for binding to iC3b. C3, C3b, and iC3b were used in the secondary screening for testing cross-reactivity.

[4] = molecular target: T1, human iC3b (purified; Complement …); experiment: direct ELISA, plate coated with 10 ug/ml iC3b, goat anti-human-HRP, ABTS, OD405
Method: Costar RIA/EIA (Costar #3590) plate was coated with 100 ul/well of 10 ug/ml iC3b (Complement Technologies) at 4 degree overnight. At day 2, the plate was washed 5 times with washing buffer (TPBS+0.05% Tween 20) and blocked with 100 ul blocking buffer (PBS containing 1.5% BSA) per well for 1 hour at room temperature. Then the plate was washed 5 times with washing buffer and incubated with 100 ul per well of testing antibodies as indicated in the figure. After 1 hour of incubation at room temperature, the plate was washed again for 5 times with washing buffer and incubated with 1:4000 diluted Goat anti human-HRP (Jackson Immunoresearch, Code 109-036-098, lot 99937) in 100 ul blocking buffer per well.

[5] = molecular target: T2, human C3 (purified; Complement Technology #A113) (human, UniProt P01024 23-667; P01024 672-1663); experiment: Biacore; antibody captured on anti-mouse CM5 chip, four concentrations of antigen; Biacore; 6G1 captured on chip, C3 in solution: weak binding, >10x weaker than iC3b
T2 construct: range 23-667;range 672-1663; Bought purified protein

[6] = molecular target: T1, human iC3b (purified; Complement …); experiment: Biacore; antibody captured on anti-mouse CM5 chip, four concentrations of antigen
Method: (§1) A preliminary Biacore assay was done with four concentrations of either iC3b or one of the two potential cross-reactive complement species (e.g., C3b or C3) to assess relative cross-reactivity. Unlike ELISA, a two-fold difference in KD is not sufficient to establish specificity in the Biacore assay. An anti-mouse CM5 chip was prepared following manufacture protocol. Three antibodies (including 6G1) were captured at levels such that Rmax would fall between 25 and 50 RU. Four concentrations of either iC3b or cross-reacting protein were used. Both were from Complement Technologies as described above.

[7] = molecular target: T1, human iC3b (purified; Complement …); experiment: Biacore; reference C3
Method: as §1

[8] = molecular target: T2, human C3 (purified; Complement …); experiment: Biacore; antibody captured on anti-mouse CM5 chip, four concentrations of antigen; Biacore; 6G1 captured on chip, C3 in solution: weak binding
[9] = molecular target: T1, human iC3b (purified; Complement …); experiment: sandwich ELISA; reference C3b

T2 sequence (P01024 23-667 limits assumed, form in doubt, chain 1 of 2): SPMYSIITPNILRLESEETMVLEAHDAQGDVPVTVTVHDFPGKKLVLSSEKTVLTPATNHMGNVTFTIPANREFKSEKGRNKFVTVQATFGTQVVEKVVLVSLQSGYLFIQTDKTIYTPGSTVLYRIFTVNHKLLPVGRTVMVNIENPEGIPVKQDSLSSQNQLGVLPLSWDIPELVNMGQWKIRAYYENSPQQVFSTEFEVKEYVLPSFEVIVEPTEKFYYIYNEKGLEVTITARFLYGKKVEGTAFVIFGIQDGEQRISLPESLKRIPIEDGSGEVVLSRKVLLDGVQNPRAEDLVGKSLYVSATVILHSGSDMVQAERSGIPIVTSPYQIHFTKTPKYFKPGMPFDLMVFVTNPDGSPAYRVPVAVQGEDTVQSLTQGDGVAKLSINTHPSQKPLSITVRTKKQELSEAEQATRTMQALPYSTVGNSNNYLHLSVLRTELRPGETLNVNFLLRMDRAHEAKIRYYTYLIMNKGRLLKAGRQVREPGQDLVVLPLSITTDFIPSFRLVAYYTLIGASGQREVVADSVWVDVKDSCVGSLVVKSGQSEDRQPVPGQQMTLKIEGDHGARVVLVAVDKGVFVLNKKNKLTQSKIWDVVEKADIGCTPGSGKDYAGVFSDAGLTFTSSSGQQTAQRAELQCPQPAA
T2 sequence (P01024 672-1663 limits assumed, form in doubt, chain 2 of 2): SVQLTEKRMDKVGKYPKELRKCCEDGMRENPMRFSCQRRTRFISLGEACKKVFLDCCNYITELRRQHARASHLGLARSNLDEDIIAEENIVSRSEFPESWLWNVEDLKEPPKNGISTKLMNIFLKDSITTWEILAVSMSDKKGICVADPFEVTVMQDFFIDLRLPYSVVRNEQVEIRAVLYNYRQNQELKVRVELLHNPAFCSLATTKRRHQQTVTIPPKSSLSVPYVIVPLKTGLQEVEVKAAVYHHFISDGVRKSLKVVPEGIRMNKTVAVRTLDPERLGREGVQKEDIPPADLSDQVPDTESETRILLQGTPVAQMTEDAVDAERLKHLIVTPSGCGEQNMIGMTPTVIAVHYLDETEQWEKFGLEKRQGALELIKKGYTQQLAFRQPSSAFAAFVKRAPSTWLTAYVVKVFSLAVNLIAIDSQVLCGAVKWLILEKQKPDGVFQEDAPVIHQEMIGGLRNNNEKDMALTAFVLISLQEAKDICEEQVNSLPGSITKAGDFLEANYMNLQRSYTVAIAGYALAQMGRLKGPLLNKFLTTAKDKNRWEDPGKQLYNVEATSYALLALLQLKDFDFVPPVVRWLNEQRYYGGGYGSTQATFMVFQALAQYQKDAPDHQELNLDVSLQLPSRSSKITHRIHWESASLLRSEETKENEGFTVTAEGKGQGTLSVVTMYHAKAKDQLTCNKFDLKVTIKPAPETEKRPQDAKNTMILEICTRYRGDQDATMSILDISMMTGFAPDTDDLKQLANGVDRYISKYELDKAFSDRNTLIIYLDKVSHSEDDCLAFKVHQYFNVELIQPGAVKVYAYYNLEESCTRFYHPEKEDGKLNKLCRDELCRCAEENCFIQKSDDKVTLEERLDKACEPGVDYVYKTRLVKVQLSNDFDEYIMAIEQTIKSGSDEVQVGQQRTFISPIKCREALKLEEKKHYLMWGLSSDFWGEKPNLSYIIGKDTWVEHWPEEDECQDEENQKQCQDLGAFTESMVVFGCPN
T1 sequence (P01024 23-667 limits assumed, chain 1 of 3): as the sequence (P01024 23-667 limits assumed, form in doubt, chain 1 of 2) above
T1 sequence (P01024 749-1303 limits assumed, chain 2 of 3): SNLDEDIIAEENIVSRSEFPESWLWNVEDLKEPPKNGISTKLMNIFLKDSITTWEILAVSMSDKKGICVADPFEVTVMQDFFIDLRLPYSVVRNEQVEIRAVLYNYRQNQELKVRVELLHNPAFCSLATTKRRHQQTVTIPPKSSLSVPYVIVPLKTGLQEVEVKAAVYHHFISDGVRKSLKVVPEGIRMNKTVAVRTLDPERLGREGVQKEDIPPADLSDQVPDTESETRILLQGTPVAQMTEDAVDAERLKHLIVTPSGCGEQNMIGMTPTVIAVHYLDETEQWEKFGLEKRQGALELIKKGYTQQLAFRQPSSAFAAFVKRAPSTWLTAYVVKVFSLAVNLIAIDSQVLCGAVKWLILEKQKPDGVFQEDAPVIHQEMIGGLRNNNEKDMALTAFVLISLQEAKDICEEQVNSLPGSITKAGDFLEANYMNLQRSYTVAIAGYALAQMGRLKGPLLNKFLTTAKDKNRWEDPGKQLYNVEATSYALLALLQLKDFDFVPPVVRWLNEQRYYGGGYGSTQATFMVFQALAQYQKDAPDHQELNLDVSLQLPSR
T1 sequence (P01024 1321-1663 limits assumed, chain 3 of 3): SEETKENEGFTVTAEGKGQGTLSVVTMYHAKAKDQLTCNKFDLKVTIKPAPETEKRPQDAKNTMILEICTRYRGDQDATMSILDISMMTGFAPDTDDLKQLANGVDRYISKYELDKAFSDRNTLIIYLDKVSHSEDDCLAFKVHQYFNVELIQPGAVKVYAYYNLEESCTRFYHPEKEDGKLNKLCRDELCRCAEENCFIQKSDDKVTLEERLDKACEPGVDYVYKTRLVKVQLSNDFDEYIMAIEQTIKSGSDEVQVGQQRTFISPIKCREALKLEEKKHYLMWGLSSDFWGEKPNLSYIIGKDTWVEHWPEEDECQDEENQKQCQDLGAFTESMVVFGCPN

fold higher affinity constant for iC3b than C3b [2]: ≥ 10 fold
fold specificity for iC3b vs. C3 or C3b [3]: > 2 fold
B3: mouse monoclonal antibody 5D2 (antibody, IgG1, V domains shown)
VH: EVQLQQSGPELVKPGASVKISCKASGYTFTDNYYMNWVKQSHGKSLEWIGHIYPNNGVTSYNQKFRGKATLTVDKSSNSAYMELRSLTSEDSALYYCARNKLLSLYWYFDVWGTGTSVTVSS
VL: DIQMTQSSSSFSVFLGDRITITCRASVDIYNRLAWFQQKPGNAPRLLISGATSLATGVPSRFSGSGSGKDYTLSITSLQTEDVTIYYCQQYWSTPWTFGGGTKLEIKR
notes: also called m5D2

EC50 (read off the curve) [4]: ~0.08 µg/mL
B4: chimeric 6G1 (antibody, V domains shown)
VH: QIQLVQSGPELKKPGETVKISCKASGYTFTNYGMNWVKQAPGKDLKWMGWINTYTGEPRYADEFKGRFAFSLETSASTAYLQINNLKNEDMATYFCAKGGYPHYYSMDYWGQGTSVTVSS
VL: DIQMTQSTSSLSASLGDRVTISCRASQDINNYLNWYQQKPDGTIKLLIYYTSKLHSGVPSRFSGSGSGRDYSLTISNLEQEDIATYFCQQGNTLPRTFGGGTKLEIKR
notes: also called chi-6G1

fold higher affinity constant for iC3b than C3b [2]: ≥ 10 fold
fold higher affinity constant for iC3b than C3b [9]: ≥ 2 fold
B6: mouse monoclonal antibody 2H8r (antibody, V domains shown)
VH: B4 VH with D44G, R59T, E63D
VL: B4 VL with S7T, N30S, I44V, K53R, R69T, N92K
notes: also called m2H8r

EC50 (read off the curve) [4]: ~0.1 µg/mL
B9: humanized 6G1 version H1L2 (antibody, V domains shown)
VH: QVQLVQSGSELKKPGASVKVSCKASGYTFTNYGMNWVRQAPGQGLKWMGWINTYTGEPRYADEFKGRFVFSLDTSVSTAYLQISSLKAEDTATYYCARGGYPHYYSMDYWGQGTTVTVSS
VL: DIQMTQSPSSLSASVGDRVTITCRASQDINNYLNWYQQKPGKTPKLLIYYTSKLHSGVPSRFSGSGSGRDYIFTISSLQPEDIATYYCQQGNTLPRTFGGGTKVEIKR
notes: H1 = 6G1 Hu v1 heavy, L2 = 6G1 Hu v2 light

binding result [4]: binds
B10: huH1L5 (antibody, V domains shown)
VH: B9 VH
VL: B9 VL with F73L, Y87F
notes: also called humanized 6G1 version H1L5

Second part, the binder before the results:

B1: humanized 5D2 version H1L1 (antibody, V domains shown)
VH: EVQLQQSGAEVKKPGASVKVSCKASGYTFTDNYYMNWVRQAPGQSLEWMGHIYPNNGVTSYNQKFRGRVTLTRDKSINTAYMELSSLTSEDTALYYCARNKLLSLYWYFDVWGQGTLVTVSS
VL: DIQMTQSPSSLSASVGDRVTITCRASVDIYNRLAWFQQKPGKAPKLLISGATSLATGVPSRFSGSGSGKDYTLTISSLQPEDFATYYCQQYWSTPWTFGGGTKLEIKR
notes: also called 5D2 H1L1
binding result [1]: binds

B2: humanized 5D2 version H2L1 (antibody, V domains shown)
VH: B1 VH with L71I, L94V
VL: B1 VL
notes: also called 5D2 H2L1
binding result [1]: binds

B5: mouse monoclonal antibody 6G1 (antibody, V domains shown)
VH: B4 VH
VL: B4 VL
notes: Mouse hybridoma antibody; also called m6G1
Kd [5]: 2100 nM
fold higher affinity constant for iC3b than C3b [2]: ≥ 10 fold
Kd [6]: 43.3 nM
kon [6]: 98000 M⁻¹ s⁻¹
fold difference in KD, iC3b relative to C3 [7]: > 10 fold
koff [8]: 0.028 s⁻¹
kon [8]: 13000 M⁻¹ s⁻¹
fold specificity for iC3b vs. C3 or C3b [3]: > 2 fold

B7: humanized 6G1 version H3L3 (antibody, V domains shown)
VH: B9 VH with R38K, G44D
VL: B9 VL with F73L
notes: Only variable regions are tied to it; also called Hu6G1 H3L3
EC50 (read off the curve) [4]: ~0.08 µg/mL

B8: humanized 6G1 version H3L5 (antibody, V domains shown)
VH: B9 VH with R38K, G44D
VL: B9 VL with F73L, Y87F
notes: H3 = 6G1 Hu v3 heavy, L5 = 6G1 Hu v5 light
binding result [4]: binds
